Assay results taken from patent US9676849B2, “Enhancement of transport of therapeutic molecules across the blood brain barrier” (Biogen Idec MA Inc., priority 2012, dated 2017).

B1: FC5: llama single domain VHH antibody binding TMEM30A, SEQ ID NO: 10, with myc and His tags (protein)
VHH: EVQLQASGGGLVQAGGSLRLSCAASGFKITHYTMGWFRQAPGKEREFVSRITWGGDNTFYSNSVKGRFTISRDNAKNTVYLQMNSLKPEDTADYYCAAGSTSTATPLRVDYWGKGTQVTVSS
modifications: myc and His tags

How the values were obtained:
[1] = Circulating pharmacokinetics of FC5 containing molecules in rats; type: in vivo; conditions: rat, intraperitoneal 3 mpk; for Beta-phase half life (h), assay format Fluorescence: AL680 labeled molecules, fluorescence from sera
Procedure: To understand the exposure of the BBB endothelium to each of the FC5 containing antibodies the pharmacokinetics the molecules were determined in rats. Animals were dosed intraperitoneally at 3 mpk with either the FC5 Vhh N-terminally (FC5-Fc) or C-terminally (Fc-FC5) fused to a human Fc domain. Concentrations of FC5-Fc or Fc-FC5 in the plasma were determined at various time points by ELISA. The results were analyzed to determine the beta-phase half-lives of each construct (Table II).
Half-life was determined by ELISA detection of the human Fc from rat serum or with AL680 labeled molecules and the fluorescence determined from the sera. No difference was observed between molecules in which the half-life was determined by fluorescence versus ELISA. Molecules were injected intraperitoneal at 3 mpk.

SV-ARBEC = experiment: Fluorescent flow cytometry binding to SV40 transformed rat BBB endothelial cells; conditions: SV40 transformed cell line vs primary cells
Procedure: (§1) The binding affinity of each molecule was evaluated in separate Fluorescent Flow Cytometry assay using freshly isolated rat BBB endothelial cells, SV40 transformed rat BBB endothelial cells (Caram-Salas, N., Boileau, E., Farrington, G. K., Garber, E., Brunette, E., Abulrob, A., and Stanimirovic, D. Methods in molecular biology 763, ed. 2010, 383-401) and to Hek293 cells transiently transfected with the previously identified target TMEM30A.

[2] = test system: immortalized adult rat brain endothelial cells (SV-ARBEC); experiment: In vitro transport rate across BBB endothelial cell monolayer; type: in vitro ADME; conditions: compared with control antibodies 12F6A, CRL2434 and C37H; FIG. 3
Source text: We used an in vitro BBB endothelial cell layer to model in vivo cross BBB flux rates for each FC5 containing protein. The in vitro model uses a monolayer of immortalized adult rat brain endothelial cells (SV-ARBEC) in a monolayer assay system validated for tightness with small molecules (Garberg, P., Ball, M., Borg, N., Cecchelli, R., Fenart, L., Hurst, R. D., Lindmark, T., Mabondzo, A., Nilsson, J. E., Raub, T. J., Stanimirovic, D., Terasaki, T., Oberg, J. O., and Osterberg, T. (2005) Toxicol In Vitro 19(3), 299-334). The methods for the in vitro flux rate determinations are nearly identical to those described in (Caram-Salas, N., Boileau, E., Farrington, G. K., Garber, E., Brunette, E., Abulrob, A., and Stanimirovic, D. Methods in molecular biology 763, ed. 2010, 383-401).

mu pain receptors = target: T1, mu pain receptors (Rattus norvegicus, UniProt P33535); experiment: Hargreaves model of thermal pain, Dalargin alone or linked; type: in vivo; conditions: for Fold potency compared to FC5-Dal in Hargreaves model: IV, based on molar ratio of Dalargin injected
T1 construct: from tissue; host or cells: rat brain (periaqueductal region), in vivo
Source text: The Hargreaves model measures increased sensitivity to thermal pain induced by injection of Freud's adjuvant in a paw. The thermal pain can be suppressed upon binding of a six amino acid peptide Dalargin to the mu pain receptors expressed in the peri-aquaductal portion of the brain. […] Thus intravenously injected Dalargin must be linked to a receptor mediated transporter to allow cross BBB transport and suppression of pain. To evaluate the transport of Dalargin mediated by FC5 containing molecules across the BBB the Hargreaves animal model was used to compare the potency of various molecular forms of FC5 Vhh linked to Dalargin. The negative control molecule for FC5-Dalargin was EG2-Dalargin and for FC5-Fc-Dalargin was Fc-FC5-Dalargin.
Prior to intravenous (IV) injection each molecule was initially tested by intracerebroventricular (ICV) injection as a positive control to insure all linked molecules are functionally active and able to induce pain suppression. Both negative control and positive test molecules would be expected to suppress pain upon ICV injection as the molecules are injected directly into the cerebral spinal fluid and are able to diffuse to and block the periacquiductal mu pain receptors. […] Next each Dalargin labeled molecule and corresponding Dalargin labeled control protein were evaluated for efficacy upon IV administration. Initially, the efficacy of FC5-Dal versus the control (EG2-Dal) was compared. […] It is interesting to note that three doses of FC5-Dal at 7.5 mg per kg (mpk) per dose as needed prior to observing the initial pain suppression.
Chronic pain suppression is expressed as the percentage of maximum possible effect (% MPE). The value is based on the area under the curve for pain suppressed animal relative to the contralateral control paw over the time frame of measurement. The efficacy of molecules injected either ICV or IV is shown as a percent of maximum possible effect (% MPE) in the Hargreaves model. […] Dose in mpk for intravenous (IV) dosing values are indicated as per injection followed by the number of injections.

Primary rat BBB EC = experiment: Fluorescent flow cytometry binding to primary rat BBB endothelial cells; conditions: read-out: Affinity (nM), Primary rat BBB EC
Procedure: as §1

T1 sequence (P33535 whole entry): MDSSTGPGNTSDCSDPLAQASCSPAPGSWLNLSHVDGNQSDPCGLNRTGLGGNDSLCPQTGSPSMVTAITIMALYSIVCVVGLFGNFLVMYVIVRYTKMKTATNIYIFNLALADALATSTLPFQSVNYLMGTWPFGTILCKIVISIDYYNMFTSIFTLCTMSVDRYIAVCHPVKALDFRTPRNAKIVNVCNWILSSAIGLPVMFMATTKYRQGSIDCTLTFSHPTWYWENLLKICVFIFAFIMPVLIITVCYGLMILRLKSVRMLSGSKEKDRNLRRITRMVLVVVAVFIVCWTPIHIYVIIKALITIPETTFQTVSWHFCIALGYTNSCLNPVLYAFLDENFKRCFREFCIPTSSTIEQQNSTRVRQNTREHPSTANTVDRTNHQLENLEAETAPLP

Molecule | half-life when fused to a human Fc compared with FC5 Vhh alone [1] | Beta-phase half life (h), assay format Fluorescence [1] | Beta-phase half life (h), assay format ELISA ([1]; ELISA detection of human Fc from rat serum) | fold weaker binding than to primary rat BBB endothelial cells (SV-ARBEC) | rate of transport across in vitro SV40 rat BBB transformed endothelial cell line [2] | Fold potency compared to FC5-Dal in Hargreaves model (mu pain receptors) | average % MPE after the first 0.5 h (mu pain receptors; rat, single IV dose 0.5 mpk) | Kd (Primary rat BBB EC)
FC5-Fc | significantly longer | 39.4 h | 35.7 h | about 7 fold | increased rate of transport | 80 fold | 50 % MPE | 
Fc-FC5 | significantly longer | 38.6 h |  |  | increased rate of transport | <0.1 fold |  | 
B1 |  |  |  |  | increased rate of transport | 1 fold |  | > 2000 nM
